The source of these data is paper PMC8163358.

For the test, the target named is gramicidin S synthetase A (GrsA) (UniProt P0C062). Kind of test: MST; 1 nM GrsA labelled with NT-647-NHS (RED-NHS kit), dilution series of TycB1(WT); NRPS buffer (50 mM HEPES, 100 mM NaCl, 10 mM MgCl2, 1 mM EDTA, pH 7.0) with 0.05% (v/v) Tween-20; triplicate; sigmoidal fit.
UniProt P0C062, sequence (P0C062 whole entry): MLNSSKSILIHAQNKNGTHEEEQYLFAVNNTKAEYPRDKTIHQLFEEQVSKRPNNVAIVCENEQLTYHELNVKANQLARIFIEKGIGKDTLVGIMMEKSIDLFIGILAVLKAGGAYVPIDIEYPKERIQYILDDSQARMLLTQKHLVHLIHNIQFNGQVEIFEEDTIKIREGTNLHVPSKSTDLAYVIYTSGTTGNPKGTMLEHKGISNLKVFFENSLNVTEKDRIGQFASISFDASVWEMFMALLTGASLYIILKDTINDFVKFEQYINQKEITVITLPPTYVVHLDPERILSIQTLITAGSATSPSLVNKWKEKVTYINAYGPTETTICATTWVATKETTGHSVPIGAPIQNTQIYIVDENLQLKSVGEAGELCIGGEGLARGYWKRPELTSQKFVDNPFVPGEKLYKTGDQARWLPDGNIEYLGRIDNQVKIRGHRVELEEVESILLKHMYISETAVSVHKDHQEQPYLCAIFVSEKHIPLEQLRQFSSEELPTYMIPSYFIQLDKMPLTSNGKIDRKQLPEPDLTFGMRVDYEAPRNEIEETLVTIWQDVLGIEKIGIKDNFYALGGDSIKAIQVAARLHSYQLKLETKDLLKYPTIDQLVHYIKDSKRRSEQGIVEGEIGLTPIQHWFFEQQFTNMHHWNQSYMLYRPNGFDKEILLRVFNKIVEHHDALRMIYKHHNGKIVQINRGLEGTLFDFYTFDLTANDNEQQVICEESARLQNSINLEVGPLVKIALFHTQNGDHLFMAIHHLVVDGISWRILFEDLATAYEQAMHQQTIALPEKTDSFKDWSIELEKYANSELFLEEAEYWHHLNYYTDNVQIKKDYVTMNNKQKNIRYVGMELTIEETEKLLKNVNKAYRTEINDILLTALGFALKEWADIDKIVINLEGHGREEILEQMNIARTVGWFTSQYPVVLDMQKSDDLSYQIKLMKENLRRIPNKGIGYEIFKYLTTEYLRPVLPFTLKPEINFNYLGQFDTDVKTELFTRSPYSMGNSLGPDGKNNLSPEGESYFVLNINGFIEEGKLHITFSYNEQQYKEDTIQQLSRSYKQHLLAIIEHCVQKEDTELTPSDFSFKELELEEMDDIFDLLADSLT

Take “TycB1 (wildtype) (from UniProt O30408 1-3587) (domain or fragment)”: the Kd was determined as 5 µM.

Broadly, the Kd is a measure of binding affinity in units of concentration. The low end stands for tighter binding, the high end for weaker binding.
